Source: patent US20230065306A1 (INHIBRX, published 2023)
Where a chain is given by its changes, count along the chain named.

T1: CD123-his
T1 construct: also called histidine tagged human CD123; His-tagged CD123 ECD
T1 extracellular domain with C-terminal His tag: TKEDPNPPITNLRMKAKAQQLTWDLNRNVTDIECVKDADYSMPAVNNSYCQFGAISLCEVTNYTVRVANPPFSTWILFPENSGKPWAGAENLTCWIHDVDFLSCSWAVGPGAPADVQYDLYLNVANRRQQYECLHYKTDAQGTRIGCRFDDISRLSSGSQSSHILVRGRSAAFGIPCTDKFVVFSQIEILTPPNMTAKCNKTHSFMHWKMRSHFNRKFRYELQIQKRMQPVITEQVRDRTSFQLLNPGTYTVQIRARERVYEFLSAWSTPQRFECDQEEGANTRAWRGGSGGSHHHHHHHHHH

B1: hzA5v2-IgG1 (Fc fusion)
chain: EVQLVESGGGEVQPGGSLRLSCAASGGTFSSYGMAWFRQAPGKEREWVASNSWIAGSTYYAESVKGRFTISRDNAKNTVYLQMSSLRAEDTAVYYCAADLLATADDEYDYWGQGTLVTVDKTHTCPPCPAPGGPSVFLFPPKPKDTLMISRTPEVTCVVVDVSHEDPEVKFNWYVDGVEVHNAKTKPREEQYNSTYRVVSVLTVLHQDWLNGKEYKCKVSNKALPAPIEKTISKAKGQPREPQVYTLPPSRDELTKNQVSLTCLVKGFYPSDIAVEWESNGQPENNYKTTPPVLDSDGSFFLYSKLTVDKSRWQQGNVFSCSVMHEALHNHYTQKSLSLSPGK
notes: also called hzA5v2 sdAb
B2: hz1B11v28-IgG1 (Fc fusion)
chain: EVQLVESGGGEVQPGGSLRLSCAASGRTQSAVAMGWFRQAPGKDRDFVAAIRWSGGNTYYAESVEGRFTISRDNAKNTVYLQMSSLRAEDTAVYSCAISLNHFGLYDYWGQGTLVTVDKTHTCPPCPAPGGPSVFLFPPKPKDTLMISRTPEVTCVVVDVSHEDPEVKFNWYVDGVEVHNAKTKPREEQYNSTYRVVSVLTVLHQDWLNGKEYKCKVSNKALPAPIEKTISKAKGQPREPQVYTLPPSRDELTKNQVSLTCLVKGFYPSDIAVEWESNGQPENNYKTTPPVLDSDGSFFLYSKLTVDKSRWQQGNVFSCSVMHEALHNHYTQKSLSLSPGK
notes: also called hz1B11v28 sdAb
B3: hz1F5v1-IgG1 (Fc fusion)
chain: EVQLVESGGGEVQPGGSLRLSCAASGRAINMYAMGWFRQAPGKEREFVAAINWNGAYTQYAESVKGRFTISRDNAKNTLYLQMSSLRAEDTAVYYCSADADYNTYVSPNKRVSYWGQGTLVTVDKTHTCPPCPAPGGPSVFLFPPKPKDTLMISRTPEVTCVVVDVSHEDPEVKFNWYVDGVEVHNAKTKPREEQYNSTYRVVSVLTVLHQDWLNGKEYKCKVSNKALPAPIEKTISKAKGQPREPQVYTLPPSRDELTKNQVSLTCLVKGFYPSDIAVEWESNGQPENNYKTTPPVLDSDGSFFLYSKLTVDKSRWQQGNVFSCSVMHEALHNHYTQKSLSLSPGK
B4: hz1F5v2-IgG1 (Fc fusion)
chain: B3 chain with A23T
B5: 4F2-IgG1 (Fc fusion)
chain: EVQLVQSGGGLVQAGGSLRLSCAASGRTVSNYPMAWFRQAPGKEREFVAHISWSGITSILNSVNDRFTISRDNAKNTIYLQMNSLKPEDTAVYYCAAAQRPTAGPKGPFGYWGQGTQVTVDKTHTCPPCPAPGGPSVFLFPPKPKDTLMISRTPEVTCVVVDVSHEDPEVKFNWYVDGVEVHNAKTKPREEQYNSTYRVVSVLTVLHQDWLNGKEYKCKVSNKALPAPIEKTISKAKGQPREPQVYTLPPSRDELTKNQVSLTCLVKGFYPSDIAVEWESNGQPENNYKTTPPVLDSDGSFFLYSKLTVDKSRWQQGNVFSCSVMHEALHNHYTQKSLSLSPGK
B6: F3-IgG1 (Fc fusion)
chain: EVQLVQSGGGLVQAGGSLRLSCRASGRAINSYNMGWFRQAPGKEREFVSAINWNGARTYYQDALKGRFAISRDNARNTMYLQMNNLKPEDTAVYYCAAAGRWSAAVPSGEDQYNFWGQGTQVTVDKTHTCPPCPAPGGPSVFLFPPKPKDTLMISRTPEVTCVVVDVSHEDPEVKFNWYVDGVEVHNAKTKPREEQYNSTYRVVSVLTVLHQDWLNGKEYKCKVSNKALPAPIEKTISKAKGQPREPQVYTLPPSRDELTKNQVSLTCLVKGFYPSDIAVEWESNGQPENNYKTTPPVLDSDGSFFLYSKLTVDKSRWQQGNVFSCSVMHEALHNHYTQKSLSLSPGK
notes: also called sdAb F3
B7: A5-IgG1 (Fc fusion)
chain: B1 chain with E6Q, E11L, P14A, A24V, A40P, E62G, S84N, R87K, A88P, L116Q
notes: No linker between VHH and Fc is stated; also called sdAb A5
B8: 1F5-IgG1 (Fc fusion)
chain: QVQLVQSGGGLVQAGGSLTVSCTASGRAINMYAMGWFRQAPGKEREFVAAINWNGAYTQYADSVKGRFTISRDNAKNTMYLQMNSLKPEDTAQYYCSADADYNTYVSPNKRVSYWGQGTQVTVDKTHTCPPCPAPGGPSVFLFPPKPKDTLMISRTPEVTCVVVDVSHEDPEVKFNWYVDGVEVHNAKTKPREEQYNSTYRVVSVLTVLHQDWLNGKEYKCKVSNKALPAPIEKTISKAKGQPREPQVYTLPPSRDELTKNQVSLTCLVKGFYPSDIAVEWESNGQPENNYKTTPPVLDSDGSFFLYSKLTVDKSRWQQGNVFSCSVMHEALHNHYTQKSLSLSPGK
B9: 1B11-IgG1 (Fc fusion)
chain: QVQLVQSGGGSVQAGGSLRLSCAAAGRTQSAVAMGWFRQDPGKDRDFVAAIRWSGGNTYYADSAEGRFTISRDNAKNTVYLQMDSLKPEDTAVYSCAISMNHFGMYDYWGQGTQVTVDKTHTCPPCPAPGGPSVFLFPPKPKDTLMISRTPEVTCVVVDVSHEDPEVKFNWYVDGVEVHNAKTKPREEQYNSTYRVVSVLTVLHQDWLNGKEYKCKVSNKALPAPIEKTISKAKGQPREPQVYTLPPSRDELTKNQVSLTCLVKGFYPSDIAVEWESNGQPENNYKTTPPVLDSDGSFFLYSKLTVDKSRWQQGNVFSCSVMHEALHNHYTQKSLSLSPGK
B10: hzF3v22-IgG1 (Fc fusion)
chain: EVQLVESGGGLVQPGGSLRLSCAASGRAINAYNMGWFRQAPGKGREFVSAINWNAARTYYAESVKGRFTISRDNAKNTLYLQMSSLRAEDTAVYYCAASGRWSAAVPSGEDQYNFWGQGTLVTVDKTHTCPPCPAPGGPSVFLFPPKPKDTLMISRTPEVTCVVVDVSHEDPEVKFNWYVDGVEVHNAKTKPREEQYNSTYRVVSVLTVLHQDWLNGKEYKCKVSNKALPAPIEKTISKAKGQPREPQVYTLPPSRDELTKNQVSLTCLVKGFYPSDIAVEWESNGQPENNYKTTPPVLDSDGSFFLYSKLTVDKSRWQQGNVFSCSVMHEALHNHYTQKSLSLSPGK
notes: also called hzF3v22 sdAb
B11: hzF3v26-IgG1 (Fc fusion)
chain: B10 chain with A23R

Target: T1, CD123-his
Test: BLI, CD123-his captured on Ni-NTA sensors, first sdAb 100 nM
Method: (§1) The epitopes of single domain antibodies (sdAbs) that comprise VHH domains that bind CD123 were compared using Bio-Layer Interferometry. 5 ug/mL of histidine tagged human CD123 was immobilized on Nickel-nitrilotriacetic acid (Ni-NTA) coated capture sensors. 100 nM of one sdAb was then loaded onto the CD123 antigen and allowed to come to equilibrium. The sensors were then transferred into 100 nM of a second sdAb.

Binder | binding result
B1 | binds
B2 | binds

target: T2, human CD123 (full-length, on cells) (human, UniProt P26951 19-378); test: flow cytometry on HEK 293 cells transfected with full-length CD123; apparent Kd, one-site fit
T2 construct: also called CD123-FL; interleukin-3 receptor alpha chain
Method: (§2) Binding of sdAbs to human CD123 was assessed by flow cytometry. […] HEK 293 cells were transiently transfected with a plasmid encoding full-length CD123 (UniProt Accession No. P26951-1; mature form, SEQ ID NO: 1) and used as the positive cell line in FIGS. 2A to 2M, and untransfected HEK 293 cells were used as CD123-negative cells. In FIG. 2N, Molm-13 cells, which express CD123, were used as the positive cell line. Each cell type was plated at 30,000 cells/well in FACS buffer (PBS 1% BSA, 0.1% NaN₃ pH 7.4) on a 96-well round-bottom plate. The sdAbs were diluted in FACS buffer in a 3-fold, 11 point serial dilution. The sdAb dilutions were added to the plated cells, and assay plates were incubated for 30 minutes at 4° C. After washing twice in 150 μL of FACS buffer, cells in each well were resuspended in 100 μL of 1:2000 Alexa Fluor 647-conjugated Anti-Human IgG secondary diluted in FACS buffer and incubated at 4° C. for 30 minutes. The cells were washed twice more, then bound antibody was detected by flow cytometry.
(§3) Flow cytometric analysis was performed on an Intellicyte iQue Plus and fluorescence was plotted as median fluorescence intensity. The apparent affinity (Kd, nM) was determined using one site binding non-linear regression in PRISM graph software.

Binder | Kd
B3 | 0.58 nM
B4 | 0.92 nM
B5 | 1.37 nM
B6 | 0.53 nM
B7 | 0.12 nM
B1 | 0.11 nM
B8 | 0.97 nM
B9 | 0.52 nM
B2 | 0.96 nM
B10 | 0.59 nM
B11 | 0.93 nM

target: T2, human CD123 (full-length, on cells); test: flow cytometry, HEK 293 cells transfected with full-length CD123 (CD123-FL); Median RL-1H
Method: as §2, §3
Target sequence in this assay (P26951 19-378): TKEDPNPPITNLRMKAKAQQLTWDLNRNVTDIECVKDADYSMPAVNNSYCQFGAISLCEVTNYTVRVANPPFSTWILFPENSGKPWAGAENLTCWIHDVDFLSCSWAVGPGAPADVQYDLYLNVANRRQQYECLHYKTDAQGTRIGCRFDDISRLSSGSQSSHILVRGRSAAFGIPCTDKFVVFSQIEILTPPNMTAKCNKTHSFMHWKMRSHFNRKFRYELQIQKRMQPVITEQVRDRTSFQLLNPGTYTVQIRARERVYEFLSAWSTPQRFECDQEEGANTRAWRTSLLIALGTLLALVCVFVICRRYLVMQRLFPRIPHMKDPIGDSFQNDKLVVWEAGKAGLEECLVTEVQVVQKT

Binder | EC50 (read off the curve)
B3 | ~0.6 nM
B4 | ~1 nM
B5 | 1 to 2 nM
B6 | ~0.6 nM
B8 | ~0.9 nM
B9 | ~0.6 nM
B2 | ~0.9 nM
B10 | ~0.7 nM
B11 | ~1 nM

target: T2, human CD123 (full-length, on cells); test: flow cytometry blocking assay, sdAb titrated on CD123-expressing HEK-293 cells with a fixed amount of IL-3-mFc
Method: (§4) Certain CD123-binding sdAbs were tested for the ability to block CD123 binding to IL-3 by titrating the sdAb onto CD123 expressing HEK-293 cells in the presence of a fixed amount of recombinant IL-3-mFc. Bound IL-3 was detected by flow cytometry using fluorophore conjugated anti-mouse IgG specific secondary antibody.

Binder | IC50 (read off the curve)
B3 | ~1 nM

target: T2, human CD123 (full-length, on cells); test: as above; remark: another data set of the same source
Method: as §4

Binder | IC50 (read off the curve)
B6 | ~1 nM
B7 | 0.3 to 0.8 nM

Target: T1, CD123-his
Test: BLI, CD123-his on Ni-NTA sensors preloaded with hzA5v2, second sdAb 100 nM
Method: as §1

Binder | binding result
B3 | binds
B10 | binds
